Data taken from US20130266574A1 (Regeneron, published 2013).

T1: amino acid residues 26-148 of human ANGPTL4 fused in-line to mouse IgG2a (hANGPTL4-mFc) (human)
T1 chain: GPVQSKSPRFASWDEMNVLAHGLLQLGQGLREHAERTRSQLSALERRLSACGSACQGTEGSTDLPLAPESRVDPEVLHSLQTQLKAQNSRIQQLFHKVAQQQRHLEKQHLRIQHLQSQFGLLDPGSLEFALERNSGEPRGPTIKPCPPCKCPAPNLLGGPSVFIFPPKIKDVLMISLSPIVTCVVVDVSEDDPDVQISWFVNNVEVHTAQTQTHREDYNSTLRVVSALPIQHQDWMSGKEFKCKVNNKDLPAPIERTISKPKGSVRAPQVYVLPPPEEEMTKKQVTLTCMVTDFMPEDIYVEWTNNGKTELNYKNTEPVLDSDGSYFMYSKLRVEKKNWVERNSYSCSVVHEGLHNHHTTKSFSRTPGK

T2: full-length hANGPTL4 (amino acid residues 26-406 of SEQ ID NO:476) with a C-terminal hexa-histidine tag (human, UniProt Q9BY76 26-406)
T2 sequence: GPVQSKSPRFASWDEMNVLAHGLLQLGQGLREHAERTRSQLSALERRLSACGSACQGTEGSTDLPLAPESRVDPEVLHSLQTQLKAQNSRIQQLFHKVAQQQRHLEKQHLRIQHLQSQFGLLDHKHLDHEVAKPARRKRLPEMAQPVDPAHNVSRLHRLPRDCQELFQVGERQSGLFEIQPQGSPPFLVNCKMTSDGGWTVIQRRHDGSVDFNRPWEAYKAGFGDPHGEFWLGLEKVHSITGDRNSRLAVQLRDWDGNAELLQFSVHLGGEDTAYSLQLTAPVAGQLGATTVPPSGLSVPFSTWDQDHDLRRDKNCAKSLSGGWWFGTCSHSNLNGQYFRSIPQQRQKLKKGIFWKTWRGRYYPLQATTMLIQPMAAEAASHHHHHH

T3: cynomolgus monkey ANGPTL4 N-terminal region (amino acid residues 26-148) with an N-terminal hexa-histidine tag (cynomolgus monkey, UniProt Q9BY76 26-148 (human entry))
T3 chain: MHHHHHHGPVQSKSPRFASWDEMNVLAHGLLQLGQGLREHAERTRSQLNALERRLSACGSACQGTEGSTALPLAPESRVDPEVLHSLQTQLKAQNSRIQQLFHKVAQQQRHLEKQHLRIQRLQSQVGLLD

T4: hANGPTL4 peptide (R34-L66 of SEQ ID NO:476) (human)
T4 peptide: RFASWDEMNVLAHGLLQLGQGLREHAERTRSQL

T5: N-terminally biotinylated hANGPTL4 peptide (R34-L66 of SEQ ID NO:476) (human, N-terminal biotin)
T5 construct: also called hANGPTL4-Nterm biotin
T5 peptide: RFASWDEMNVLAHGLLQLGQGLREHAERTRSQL

T6: hANGPTL3 peptide (R36-I68 of SEQ ID NO:485) (human)
T6 peptide: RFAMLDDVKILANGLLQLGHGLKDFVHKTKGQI

T7: N-terminally biotinylated hANGPTL3 peptide (R36-I68 of SEQ ID NO:485) (human, N-terminal biotin)
T7 construct: also called hANGPTL3-Nterm biotin
T7 peptide: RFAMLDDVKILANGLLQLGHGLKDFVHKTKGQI


What was measured:
[1] = biological target: T1, amino acid residues 26-148 of human …; test: cell-based or functional assay
[2] = biological target: T2, full-length hANGPTL4 (amino acid …); test: cell-based or functional assay
[3] = biological target: T1, amino acid residues 26-148 of human …; test: cell-based or functional assay
[4] = biological target: T2, full-length hANGPTL4 (amino acid …); test: cell-based or functional assay; remark: listed apart in the source
[5] = biological target: T3, cynomolgus monkey ANGPTL4 N-terminal …; test: cell-based or functional assay
[6] = biological target: T4, hANGPTL4 peptide (R34-L66 of SEQ ID …); test: SPR (Biacore), antibody captured on anti-human Fc, peptide injected
Experimental: (§1) Further, the binding affinities of H1H268P and H1H284P for various ANGPTL3 and ANGPTL4 peptides were also determined by BIACORE™ system. Briefly, H1H268P (1348±11 RU) and H1H284P (868±13 RU) were captured over anti-human Fc surface and various concentrations (62.5 nM-500 nM) of the hANGPTL3 and hANGPTL4 peptides were injected. […] Kinetic analysis was performed to measure kₐ and kd, and KD values and half-life of antigen/antibody complex dissociation were calculated. NB: No binding under the experimental conditions described.

[7] = biological target: T5, N-terminally biotinylated hANGPTL4 …; test: as above
Experimental: as §1

[8] = biological target: T6, hANGPTL3 peptide (R36-I68 of SEQ ID …); test: as above
Experimental: as §1

[9] = biological target: T7, N-terminally biotinylated hANGPTL3 …; test: as above
Experimental: as §1

[10] = biological target: T1, amino acid residues 26-148 of human …; test: SPR (Biacore T100), hANGPTL4-mFc captured by anti-mouse IgG, antibody injected, 37° C.
Experimental: Antigen-antibody binding and dissociation were monitored in real time at 25° C. and 37° C. Kinetic analysis was performed to calculate KD and half-life of antigen/antibody complex dissociation.

| Binder | % Inhibition of hANGPTL4 Activity (LPL lipase test), hANGPTL4-mFc (2 nM) [1] [%] | % Inhibition of hANGPTL4 Activity (LPL lipase test), hANGPTL4-His (10 nM) [2] [%] | IC50 (nM) in the LPL bioassay, constant ANGPTL4 2 nM [3] [nM] | IC50 (nM) in the LPL bioassay, constant ANGPTL4 10 nM [4] [nM] | IC50 (nM) in the LPL bioassay, constant ANGPTL4 10 nM [5] [nM] | binding result [6] | binding result [7] | binding result [8] | binding result [9] | Kd [10] [nM] | t1/2 [10] [min] | Kd [6] [nM] | koff [6] [s⁻¹] | kon [6] [M⁻¹ s⁻¹] | t1/2 [6] [min] | Kd [7] [nM] | koff [7] [s⁻¹] | kon [7] [M⁻¹ s⁻¹] | t1/2 [7] [min] |
| --- | --- | --- | --- | --- | --- | --- | --- | --- | --- | --- | --- | --- | --- | --- | --- | --- | --- | --- | --- |
| H1H284P (antibody, V domains shown, also called entire H1H284 mAb; Full mAb) VH: QVQLVESGGGVVQPGRSLRLSCAASGFTFSSYGMHWVRQAPGKGLEWMAVISFDGGNKNNADSVKGRFTISRDNSKNTLYLQMNSLRAEDTAVYYCAKEGDRSGHPYFYYYGLDVWGQGTTVTVS VL: DIQLTQSPSFLSASVGDRVTITCWASQGISSYLAWYQQKPGKAPKLLIYAASTLQSGVPSRFSGSGSETEFTLTISSLQPEDFATYYCQQLHSYPLTFGGGTKVEIK | 82 | 90 | 0.51 | 0.31 | 0.42 | no binding (tested: 500 nM) | no binding (tested: 500 nM) | no binding (tested: 62.5 nM-500 nM) | no binding (tested: 62.5 nM-500 nM) | 0.349 | 81 |  |  |  |  |  |  |  |  |
| H1H268P (antibody, V domains shown, also called entire H1H268 mAb; Full mAb) VH: QVQLQESGAGLLKPSETLSLTCTVYGGSFSIHHWTWIRHPPGKGLEWIGEINHRGSTNYNPSLKSRVTISIDTSKNQFSLKLSAVTAADTAVYYCARGLRFLDWLSSYFDYWGQGTLVTVSS VL: DIQMTQSPSSLSASVGDRVTITCRASQGISDYLAWYQQKPGKVPNLLIYAASALQSGVPSRFSGSGSGTDFTLTISSLQPEDVATYYCQNYNTAPLTFGGGTKVEIK | 76 | 80 | 0.47 | 0.46 | 0.42 |  |  | no binding (tested: 62.5 nM-500 nM) | no binding (tested: 62.5 nM-500 nM) | 0.389 | 57 | 56.3 | 0.000365 | 6490 | 32 | 64.8 | 0.000294 | 4530 | 39 |
